{
  "source": "patent US20190367592A1",
  "binders": {"B1": {"name": "hu37D3.v28.A4 (antibody, V domains shown)", "VH": "EVQLVESGGGLVQPGGSLRLSCAASGLIFRSYGMSWVRQAPGKGLEWVATINSGGTYTYYPDSVKGRFTISRDNSKNTLYLQMNSLRAEDTAVYYCANSYSGAMDYWGQGTLVTVSS", "VL": "DDVLTQTPLSLPVTPGQPASISCRSSQSIVHSNGNTYLEWYLQKPGQSPQLLIYKVSNRFSGVPDRFSGSGSGTDFTLKISRVEAEDVGVYYCFQGSLVPWTFGQGTKVEIK"}, "B2": {"name": "hu37D3-H9.v1 (antibody, V domains shown)", "VH": "B1 VH", "VL": "EDQLTQSPSSLSASVGDRVTITCRSSQSIVHSNGNTYFEWYQQKPGKSPKLLIYKVSNRFSGVPSRFSGSGSGTDFTLTISSLQPEDFATYYCFQGSLVPWTFGQGTKVEIK"}, "B3": {"name": "hu37D3-H9.v5 (antibody, V domains shown)", "VH": "B1 VH", "VL": "B1 VL with D1E, L38F"}},
  "note": "Residue numbers refer to the chain shown, from its start.",
  "data": [
    {"target": "monomeric cynomolgus monkey Tau (cynomolgus monkey)", "assay": "SPR, hIgG captured, cyno Tau monomer analyte", "units": {"Kd": "pM", "koff": "s⁻¹", "kon": "M⁻¹ s⁻¹"}, "values": [
      {"binder": "B1", "Kd": 700, "koff": 0.001, "kon": "1.7e+06"},
      {"binder": "B2", "Kd": 800, "koff": 0.001, "kon": "2e+06"},
      {"binder": "B3", "Kd": 600, "koff": 0.001, "kon": "1.5e+06"}
    ]}
  ]
}
